Patent US20050100554A1 (published 2005)

B5: Human Papillomavirus 1a E1 (other)
chain: MADNKGTENDWFLVEATDCEETLEETSLGDLDNVSCVSDLSDLLDEAPQSQGNSLELFHKQESLESEQELNALKRKLLYSPQARSADETDIASISPRLETISITKQDKKRYRRQLFSQDDSGLELSLLQDETENIDESTQVDQQQKEHTGEVGAAGVNILKASNIRAALLSRFKDTAGVSFTDLTRSYKSNKTCCGDWVLAVWGVRENLIDSVKELLQTHCVYIQLEHAVTEKNRFLFLLVRFKAQKSRETVIKLITTILPVDASYILSEPPKSRSVAAALFWYKRSMSSTVFTWGTTLEWIAQQTLINHQLDSESPFELCKMVQWAYDNGHTEECKIAYYYAVLADEDENARAFLSSNSQAKYVKDCAQMVRHYLRAEMAQMSMSEWIFRKLDNVEGSGNWKEIVRFLRFQEVEFISFMIAFKDLLCGKPKKNCLLIFGPPNTGKSMFCTSLLKLLGGKVISYCNSKSQFWLQPLADAKIGLLDDATKPCWDYMDIYMRNALDGNTICIDLKHRAPQQIKCPPLLITSNIDVKSDTCWMYLHSRISAFKFAHEFPFKDNGDPGFSLTDENWKSFFERFWQQLELSDQEDEGNDGKPQQSLRLTARAANEPI
notes: also called HPV 1a E1; cbe_552975

What was measured:
[1] = molecular target: B5; assay: Y2H; INT ID 582
[2] = molecular target: T1, phosphoglycerate mutase 1 (brain) (human, UniProt P18669 2-254); assay: Y2H; INT ID 432
T1 construct: also called PGAM1; cbe_3820530
T1 sequence: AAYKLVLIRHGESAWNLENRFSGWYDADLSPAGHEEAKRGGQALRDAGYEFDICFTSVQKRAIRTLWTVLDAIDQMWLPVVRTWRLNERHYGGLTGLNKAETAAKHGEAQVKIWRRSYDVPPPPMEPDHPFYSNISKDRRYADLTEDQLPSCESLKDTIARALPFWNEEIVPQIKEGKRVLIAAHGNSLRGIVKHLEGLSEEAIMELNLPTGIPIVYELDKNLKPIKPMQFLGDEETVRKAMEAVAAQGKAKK

[3] = molecular target: T2, tissue factor pathway inhibitor (lipoprotein-associated coagulation inhibitor) (human, UniProt P10646 29-304); assay: Y2H; INT ID 309
T2 construct: also called TFPI; cbe_3834015
T2 sequence: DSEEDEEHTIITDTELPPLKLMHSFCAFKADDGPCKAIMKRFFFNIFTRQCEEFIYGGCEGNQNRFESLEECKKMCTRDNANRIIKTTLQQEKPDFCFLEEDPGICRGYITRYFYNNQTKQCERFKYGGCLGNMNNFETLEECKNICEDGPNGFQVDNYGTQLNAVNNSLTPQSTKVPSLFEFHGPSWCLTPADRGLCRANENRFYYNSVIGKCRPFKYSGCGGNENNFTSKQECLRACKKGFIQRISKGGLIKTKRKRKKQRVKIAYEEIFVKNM

[4] = molecular target: T3, Homo sapiens QUAKING isoform 5 (QUAKING) (human, UniProt Q96PU8 5-341); assay: Y2H; INT ID 431
T3 construct: also called cbe_3810032
T3 sequence: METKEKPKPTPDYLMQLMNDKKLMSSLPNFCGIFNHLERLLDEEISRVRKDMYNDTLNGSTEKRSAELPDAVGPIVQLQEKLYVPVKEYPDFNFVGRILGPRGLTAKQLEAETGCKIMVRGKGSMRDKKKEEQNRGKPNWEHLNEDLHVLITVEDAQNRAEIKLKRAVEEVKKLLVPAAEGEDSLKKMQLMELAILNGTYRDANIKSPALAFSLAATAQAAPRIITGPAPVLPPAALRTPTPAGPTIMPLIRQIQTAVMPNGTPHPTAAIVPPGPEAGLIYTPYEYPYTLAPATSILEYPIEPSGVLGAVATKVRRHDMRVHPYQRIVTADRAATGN

[5] = molecular target: T4, adaptor-related protein complex 2, mu 1 subunit (human, UniProt Q96CW1 1-435); assay: Y2H; INT ID 430
T4 construct: also called AP2M1; cbe_3789063
T4 sequence (Q96CW1 whole entry, one chain of several): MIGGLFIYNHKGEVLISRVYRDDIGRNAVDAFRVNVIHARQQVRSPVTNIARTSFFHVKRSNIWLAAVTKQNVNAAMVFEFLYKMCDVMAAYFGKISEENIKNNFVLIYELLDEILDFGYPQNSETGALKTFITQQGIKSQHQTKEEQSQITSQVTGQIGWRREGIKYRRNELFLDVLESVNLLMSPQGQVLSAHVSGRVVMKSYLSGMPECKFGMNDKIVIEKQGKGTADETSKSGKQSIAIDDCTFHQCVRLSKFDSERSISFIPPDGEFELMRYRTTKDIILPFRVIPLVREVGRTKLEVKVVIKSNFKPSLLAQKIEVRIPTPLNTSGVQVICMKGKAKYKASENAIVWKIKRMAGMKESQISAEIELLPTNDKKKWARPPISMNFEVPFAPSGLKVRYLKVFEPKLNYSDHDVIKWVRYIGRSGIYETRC

RBP4 = molecular target: T5, RBP4 (human, UniProt P02753 19-201); assay: Y2H; INT ID 433
T5 construct: also called cbe_4265947

[6] = molecular target: B5; assay: Y2H; INT ID 581
[7] = molecular target: B5; assay: Y2H; INT ID 583
NDUFAB1 = molecular target: T6, NDUFAB1 (human, UniProt O14561 69-156); assay: Y2H; INT ID 587
T6 construct: also called cbe_4269931

TLK2 = molecular target: T7, TLK2 (human, UniProt Q86UE8 1-772, limits assumed); assay: Y2H; INT ID 584
T7 construct: Y2H Gal4 fusion; also called cbe_4269167
T7 sequence (Q86UE8 whole entry, the tested form may be a part): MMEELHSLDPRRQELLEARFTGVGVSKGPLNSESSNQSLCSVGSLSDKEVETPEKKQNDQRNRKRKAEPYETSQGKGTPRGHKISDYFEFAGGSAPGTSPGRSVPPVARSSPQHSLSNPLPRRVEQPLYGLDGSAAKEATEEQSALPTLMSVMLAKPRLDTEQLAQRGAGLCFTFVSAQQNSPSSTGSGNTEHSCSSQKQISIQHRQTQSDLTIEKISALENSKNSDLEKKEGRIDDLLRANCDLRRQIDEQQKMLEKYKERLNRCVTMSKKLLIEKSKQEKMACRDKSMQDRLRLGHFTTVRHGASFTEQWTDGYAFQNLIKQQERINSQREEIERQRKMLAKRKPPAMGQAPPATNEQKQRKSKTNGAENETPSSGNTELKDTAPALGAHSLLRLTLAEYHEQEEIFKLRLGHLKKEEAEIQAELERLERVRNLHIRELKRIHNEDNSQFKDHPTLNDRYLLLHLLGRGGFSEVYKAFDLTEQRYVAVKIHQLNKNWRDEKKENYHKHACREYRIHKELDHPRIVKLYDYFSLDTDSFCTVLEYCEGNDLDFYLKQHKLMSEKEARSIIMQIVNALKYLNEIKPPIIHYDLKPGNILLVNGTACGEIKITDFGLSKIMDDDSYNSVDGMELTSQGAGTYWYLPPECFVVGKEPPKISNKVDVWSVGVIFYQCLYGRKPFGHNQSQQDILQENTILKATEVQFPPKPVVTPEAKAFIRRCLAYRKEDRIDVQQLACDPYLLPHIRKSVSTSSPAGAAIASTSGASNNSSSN

[8] = molecular target: B5; assay: Y2H; INT ID 579
[9] = molecular target: T8, exportin 1 (CRM1 homolog, yeast) (human, UniProt O14980 1-1071); assay: Y2H; INT ID 424
T8 construct: also called XPO1; cbe_3621798
T8 sequence (O14980 whole entry): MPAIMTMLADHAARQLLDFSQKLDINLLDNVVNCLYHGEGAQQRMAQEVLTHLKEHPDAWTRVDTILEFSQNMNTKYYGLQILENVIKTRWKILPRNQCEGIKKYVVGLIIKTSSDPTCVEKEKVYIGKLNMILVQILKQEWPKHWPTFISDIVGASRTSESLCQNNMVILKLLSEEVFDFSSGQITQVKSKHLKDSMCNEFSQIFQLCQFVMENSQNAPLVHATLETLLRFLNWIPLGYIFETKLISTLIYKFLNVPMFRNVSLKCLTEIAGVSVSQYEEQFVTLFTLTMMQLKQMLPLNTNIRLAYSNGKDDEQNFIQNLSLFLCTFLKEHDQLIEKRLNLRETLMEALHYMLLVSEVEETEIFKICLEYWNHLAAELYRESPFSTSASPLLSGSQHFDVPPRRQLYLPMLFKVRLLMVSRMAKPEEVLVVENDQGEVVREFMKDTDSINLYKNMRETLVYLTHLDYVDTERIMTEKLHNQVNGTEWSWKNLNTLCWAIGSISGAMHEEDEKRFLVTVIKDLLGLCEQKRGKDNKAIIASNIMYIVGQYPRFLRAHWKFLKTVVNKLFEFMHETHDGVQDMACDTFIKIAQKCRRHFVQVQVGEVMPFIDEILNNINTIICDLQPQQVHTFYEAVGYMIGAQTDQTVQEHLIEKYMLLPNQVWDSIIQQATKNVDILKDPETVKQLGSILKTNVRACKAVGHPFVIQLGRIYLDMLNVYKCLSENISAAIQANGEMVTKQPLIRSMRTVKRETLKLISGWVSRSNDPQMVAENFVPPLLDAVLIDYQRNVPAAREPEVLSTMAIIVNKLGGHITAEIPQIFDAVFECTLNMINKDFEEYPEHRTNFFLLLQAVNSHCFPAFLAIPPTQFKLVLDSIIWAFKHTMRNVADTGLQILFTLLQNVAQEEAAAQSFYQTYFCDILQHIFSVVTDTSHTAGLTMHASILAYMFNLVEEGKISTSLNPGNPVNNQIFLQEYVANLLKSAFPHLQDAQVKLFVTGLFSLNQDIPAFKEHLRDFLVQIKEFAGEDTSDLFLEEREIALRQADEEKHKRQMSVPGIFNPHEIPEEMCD

ANXA2 = molecular target: T9, ANXA2 (human, UniProt P07355 2-339); assay: Y2H; INT ID 426
T9 construct: also called cbe_4267867
T9 sequence (P07355 2-339 limits assumed): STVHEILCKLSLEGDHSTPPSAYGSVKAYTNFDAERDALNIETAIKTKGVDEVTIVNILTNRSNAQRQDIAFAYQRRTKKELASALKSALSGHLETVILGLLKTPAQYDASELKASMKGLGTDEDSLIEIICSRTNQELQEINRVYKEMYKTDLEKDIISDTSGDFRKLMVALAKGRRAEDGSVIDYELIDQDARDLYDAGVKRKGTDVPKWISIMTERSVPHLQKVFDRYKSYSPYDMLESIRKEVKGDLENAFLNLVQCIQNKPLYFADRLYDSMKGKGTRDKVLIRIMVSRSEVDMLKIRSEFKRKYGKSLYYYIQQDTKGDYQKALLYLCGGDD

hexokinase 1 = molecular target: T10, hexokinase 1 (human, UniProt P19367 22-917); assay: Y2H; INT ID 425
T10 construct: also called HK1; cbe_3665307
T10 sequence: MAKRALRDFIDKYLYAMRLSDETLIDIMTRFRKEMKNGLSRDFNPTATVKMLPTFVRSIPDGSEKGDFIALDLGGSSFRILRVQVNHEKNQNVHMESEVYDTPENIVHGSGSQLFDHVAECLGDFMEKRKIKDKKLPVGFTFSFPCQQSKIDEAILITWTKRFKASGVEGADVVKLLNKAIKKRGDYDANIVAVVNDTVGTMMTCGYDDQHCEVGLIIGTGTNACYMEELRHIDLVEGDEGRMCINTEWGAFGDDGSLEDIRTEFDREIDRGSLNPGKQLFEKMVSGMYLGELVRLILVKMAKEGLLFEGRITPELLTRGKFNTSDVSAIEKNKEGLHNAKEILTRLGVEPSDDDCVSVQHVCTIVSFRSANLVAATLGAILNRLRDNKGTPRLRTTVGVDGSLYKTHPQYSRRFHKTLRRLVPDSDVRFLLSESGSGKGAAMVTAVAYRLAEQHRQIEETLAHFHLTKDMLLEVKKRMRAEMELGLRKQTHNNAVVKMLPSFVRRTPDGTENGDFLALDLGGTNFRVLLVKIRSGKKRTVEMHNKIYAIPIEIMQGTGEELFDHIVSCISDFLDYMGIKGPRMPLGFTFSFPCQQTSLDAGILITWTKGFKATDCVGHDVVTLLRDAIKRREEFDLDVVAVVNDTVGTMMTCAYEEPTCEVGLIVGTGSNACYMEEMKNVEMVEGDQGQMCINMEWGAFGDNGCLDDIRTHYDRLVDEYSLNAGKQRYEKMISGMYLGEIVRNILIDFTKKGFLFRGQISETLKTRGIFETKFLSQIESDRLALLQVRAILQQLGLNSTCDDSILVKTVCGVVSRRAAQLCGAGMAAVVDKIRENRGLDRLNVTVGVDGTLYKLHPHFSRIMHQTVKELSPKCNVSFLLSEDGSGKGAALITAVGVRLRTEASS

B1: TRAF interacting protein (other)
chain: MPIRALCTICSDFFDHSRDVAAIHCGHTFHLQCLIQSFETAPSRTCPQCRIQVGKRTIINKLFFDLAQEEENVLDREFLKNELDNVRAQLSQKDKEKRDSQVIIDTLRDTLEERNATVVSLQQALGKAEMLCSTLKKQMKYLEQQQDETKQAQEEAGRLRSKMKTMEQIELLLQSQLPEVEEMIRDMGVGQSAVEQLAVYCVSLKKEYENLKEARKASGEVADKLRKDLFSSRSKLQTVYSELDQAKLELKSAQKDLQSADKEIMSLKKKLTMLQETLNLPPVASETVDRLVLESPAPVEVNLKLRRPSFRDDIDLNATFDVDTPPARPSSSQHGYYEKLCLEKSHSPIQDVPKKICKGPRKESQLSLGGQSCAGEPDEELVGAFPIFVRNAILGQKQPKRPRSESSCSKDVVRTGFDGLGGRTKFIQPTDTVMIRPLPVKPKTKVKQRVRVKTVPSLFQAKLDTFLWS
notes: also called TRIP; cbe_3340492
- binding result [1]: binds

B2: Human Papillomavirus 1a E7 (other)
chain: MVGEMPALKDLVLQLEPSVLDLDLYCYEEVPPDDIEEELVSPQQPYAVVASCAYCEKLVRLTVLADHSAIRQLEELLLRSLNIVCPLCTLQRQ
notes: also called HPV 1a E7; cbe_251925
- binding result [2]: binds
- binding result [3]: binds
- binding result [4]: binds
- binding result [5]: binds
- binding result (RBP4): binds

B3: interferon regulatory factor 1 (other)
chain: MPITRMRMRPWLEMQINSNQIPGLIWINKEEMIFQIPWKHAAKHGWDINKDACLFRSWAIHTGRYKAGEKEPDPKTWKANFRCAMNSLPDIEEVKDQSRNKGSSAVRVYRMLPPLTKNQRKERKSKSSRDAKSKAKRKSCGDSSPDTFSDGLSSSTLPDDHSSYTVPGYMQDLEVEQALTPALSPCAVSSTLPDWHIPVEVVPDSTSDLYNFQVSPMPSTSEATTDEDEEGKLPEDIMKLLEQSEWQPTNVDGKGYLLNEPGVQPTSVYGDFSCKEEPEIDSPGGDIGLSLQRVFTDLKNMDATWLDSLLTPVRLPSIQAIPCAP
notes: also called IRF1; cbe_3001381
- binding result [6]: binds

B4: TDE1 (other)
chain: MGAVLGVFSLASWVPCLCSGASCLLCSCCPNSKNSTVTRLIYAFILLLSTVVSYIMQRKEMETYLKKIPGFCEGGFKIHEADINADKDCDVLVGYKAVYRISFAMAIFFFVFSLLMFKVKTSKDLRAAVHNGFWFFKIAALIGIMVGSFYIPGGYFSSVWFVVGMIGAALFILIQLVLLVDFAHSWNESWVNRMEEGNPRLWYAALLSFTSAFYILSIICVGLLYTYYTKPDGCTENKFFISINLILCVVASIISIHPKIQEHQPRSGLLQSSLITLYTMYLTWSAMSNEPDRSCNPNLMSFITRITAPTLAPGNSTAVVPTPTPPSKSGSLLDSDNFIGLFVFVLCLLYSSIRTSTNSQVDKLTLSGSDSVILGDTTTSGASDEEDGQPRRAVDNEKEGVQYSYSLFHLMLCLASLYIMMTLTSWYSPDAKFQSMTSKWPAVWVKISSSWVCLLLYVWTLVAPLVLTSRDFS
notes: also called cbe_3926508
- binding result [7]: binds

Binder: B5
- binding result (NDUFAB1): binds
- binding result (TLK2): binds

B6: hypothetical protein FLJ13236 (other)
chain: MAKGLLVTYALWAVGGPAGLHHLYLGRDSHALLWMLTLGGGGLGWLWEFWKLPSFVAQANRAQGQRQSPRGVTPPLSPIRFAAQVIVGIYFGLVALISLSSMVNFYIVALPLAVGLGVLLVAAVGNQTSDFKNTLGSAFLTSPIFYGRPIAILPISVAASITAQRHRRYKALVASEPLSVRLYRLGLAYLAFTGPLAYSALCNTAATLSYVAETFGSFLNWFSFFPLLGRLMEFVLLLPYRIWRLLMGETGFNSSCFQEWAKLYEFVHSFQDEKRQLAYQVLGLSEGATNEEIHRSYQELVKVWHPDHNLDQTEEAQRHFLEIQAAYEVLSQPRKPWGSRR
notes: also called cbe_71919
- binding result [8]: binds

B7: Human Papillomavirus 1a E6 (other)
chain: MATPIRTVRQLSESLCIPYIDVLLPCNFCNYFLSNAEKLLFDHFDLHLVWRDNLVFGCCQGCARTVSLLEFVLYYQESYEVPEIEEILDRPLLQIELRCVTCIKKLSVAEKLEVVSNGERVHRVRNRLKAKCSLCRLYAI
notes: also called HPV 1a E6; cbe_251919
- binding result [9]: binds
- binding result (ANXA2): binds
- binding result (hexokinase 1): binds
